Results reported in patent US20030170653A1, “Biological method for the production of tuliposide A and its intermediates” (priority 2001, published 2003).
Values belong to the molecule of their own block, whether it stands above or below them.

Columns and labels:
Format in all cases: biochemical
[1] = Dehydrogenase assay of protein extracts, oxidation of NADPH or NADH at 340 nm; settings: 1.5 mM succinic semialdehyde; for activity with NADH as electron donator: 0.5 mM NADH; for specific activity: 0.5 mM NADPH, pH 7.2, room temperature, protein extract
Method: Plasmids pTrcEtp and pTrcAds were retransformed into TOP10 cells and freshly plated transformants were used in gene expression studies. In addition, the pTrcHis-TOPO/lacZ plasmid (Invitrogen) was also transformed into TOP10 cells to be used as a negative control in expression experiments. Freshly transformed Escherichia coli colonies containing pTrcEtp, pTrcAds or pTrcHis-TOPO/lacZ were inoculated into 2 mL of LB liquid media containing ampicillin (100 μg/mL) and grown at 37° C. for 5 h. These were then transferred to 100 mL of LB liquid media containing ampicillin (100 μg/mL) and cultures were grown overnight at room temperature. The next morning, the cultures were diluted to an OD600 nm of 0.2 and were grown at room temperature until the OD600 nm reached 0.8. IPTG was added to the cultures to a concentration of 0.4 mM and cultures were grown for an additional 3 h at room temperature. The cultures were then centrifuged at 10,000× g for 15 min, the supernatant was decanted and the resulting pellet was resuspended in 2 mL of breakage buffer (100 mM HEPES, pH 7.2; 10 % glycerol; 1 mM AEBSF; 1 μg/mL leupeptin; and 1 μg/mL pepstatin). Cells were broken by passage two times through a french press and the resulting extract was centrifuged at 16,000× g for 15 min at 4° C. The supernatant was carefully removed (soluble protein) and the pellet was resuspended in 1 mL of breakage buffer. An additional 1 mL of breakage buffer containing 12 mM CHAPS was added and after mixing and incubation on ice for 30 min, the mixture was centrifuged at 16,000× g for 15 min at 4° C. The supernatant was carefully removed (CHAPS soluble protein) and the pellet was resuspended in 2 mL of breakage buffer (insoluble protein).
Protein extracts (soluble, CHAPS soluble and insoluble) from TOP10 cells containing pTrcEtp, pTrcAds and pTrcHis-TOPO/lacZ were assayed by measuring the oxidation of NADPH or NADH using the decrease in absorbance at 340 nm (Hearl et al., J. Biol. Chem. 260:16361-16366 (1985)). Assays contained 100 mM potassium phosphate (pH 7.2), 10% glycerol, 1.5 mM succinic semialdehyde, 0.5 mM of either NADPH or NADH and from 10 μg-400 μg of enzyme extract in a total volume of 1 mL. Assays were initiated by addition of succinic semialdehyde and were measured at room temperature. Protein concentrations of each extract were determined using the BioRad protein assay (Biorad). Protein extracts were also analyzed by SDS-PAGE.

[2] = Kinetic analysis of purified dehydrogenases with succinatesemialdehyde and NADPH; settings: purified enzyme 3 μg/mL, succinatesemialdehyde 0.1-30 mM, 0.5 mM NADPH, pH 7.0
Method: Cultures were grown at 37° C. for 5 h and then were transferred to 100 mL of LB liquid media containing ampicillin (100 μg/mL). These were grown overnight at room temperature. The next morning, 50 mL of each culture was transferred to 1 L of LB and grown at room temperature until the OD600 nm reached 0.8. IPTG was added to the cultures to a concentration of 0.4 mM and cultures were grown for an additional 4 h at room temperature. The cultures were then centrifuged at 10,000× g for 15 min, the supernatant was decanted and the resulting pellet was resuspended in 10 mL of breakage buffer (100 mM HEPES, pH 7.2; 10 % glycerol; 1 mM AEBSF; 1 μg/mL leupeptin; and 1 μg/mL pepstatin). Cells were broken by passage two times through a french press and the resulting extract was centrifuged at 16,000× g for 15 min at 4° C. The supernatant was carefully removed and 40 mL of Ni loading buffer (20 mM sodium phosphate, pH 7.5; 10 mM immidazole; 500 mM sodium chloride) was added. Proteins were loaded onto a 5 mL Hitrap chelating column (Pharmacia, Inc.) pre-equilibrated with 100 mM nickel sulfate and washed with 20 mL of loading buffer. Another wash with 50 mL of loading buffer containing 60 mM immidazole was carried out and bound proteins were eluted with a gradient of loading buffer containing immidazole from 60 mM to 1000 mM. All fractions were analyzed by SDS-PAGE.
(§1) All proteins eluted at around 120 mM immidazole. Purified proteins from pTrcAds and pTrcEtp were assayed with succinatesemialdehyde and NADPH as described above. […] Assays contained 0.5 mM NADPH, 100 mM sodium phosphate (pH 7.0), 1 mg/mL BSA, succinatesemialdehyde and enzyme in 200 μL total. Assays were carried out at various concentrations of succinatesemialdehyde (0.1-30 mM) using 3 μg/mL of each enzyme. Under these conditions, the kinetic parameters for the Arabidopsis dehydrogenase (kcat=1290 min-1, KM=4 mM) and the Tulip dehydrogenase (kcat=1200 min^−1, KM=3 mM) were determined. The ablility of each enzyme to reduce to α-methylenesuccinatesemialdehyde to α-methylene-γ-hydroxybutyrate was assessed in a coupled assay. The GABT protein from E. coli, purified as described above, was used to generate α-methylenesuccinatesemialdehyde from α-methylene-γ-aminobutyrate. This assay was carried out in the presence or absence of the Arabidopsis and Tulip dehydrogenase. […] To this was added either the Arabidopsis or Tulip protein (20 μg/mL and 3 μg/mL) or no additional protein as negative control. Assays were incubated at room temperature for 30 min and the reaction was stopped with 10% HCl. Acidification of the assay also served to partially convert α-methylene-γ-hydroxybutyrate to α-methylene-γ-butyrolactone (MBL). […] Compounds were detected with a Waters 9600 PDA detector. […]

[3] = Coupled assay with purified GABT: reduction of α-methylenesuccinatesemialdehyde, MBL detected by HPLC; settings: coupled with 100 μg GABT, 1 mM α-methylene-γ-aminobutyrate, 0.5 mM NADPH, room temperature, 30 min
Method: as §1

activity with NADH as electron donator [1]: no activity
B1: GHBD2: γ-hydroxybutyrate dehydrogenase homolog from Arabidopsis (SEQ ID NO: 16), expressed from pTrcAds (protein)
chain: MEVGFLGLGIMGKAMSMNLLKNGFKVTVWNRTLSKCDELVEHGASVCESPAEVIKKCKYTIAMLSDPCAALSVVFDKGGVLEQICEGKGYIDMSTVDAETSLKINEAITGKGGRFVEGPVSGSKKPAEDGQLIILAAGDKALFEESIPAFDVLGKRSFYLGQVGNGAKMKLIVNMIMGSMMNAFSEGLVLADKSGLSSDTLLDILDLGAMTNPMFKGKGPSMNKSSYPPAFPLKHQQKDMRLALALGDENAVSMPVAAAANEAFKKARSLGLGDLDFSAVIEAVKFSRE
modifications: Arabidopsis
specific activity [1]: 0.097 μmol/min^−1/mg^−1 | Km [2]: 4 mM | kcat [2]: 21.5 s⁻¹ | conversion of α-methylenesuccinatesemialdehyde [3]: could convert

activity with NADH as electron donator [1]: no activity
B2: GHBD1: γ-hydroxybutyrate dehydrogenase homolog from tulip pistil (SEQ ID NO: 14), expressed from pTrcEtp (protein)
chain: MEVGFLGLGIMGKAMAVNLLRSGFRVTVWNRTLSKCNELLEQGASVGETPAAVIKKCKYTIAMLSDPSAALSVVFDKDGVLEHMSSGKGYIDMSTVDAVTSSKISEAITQKGGHFLEAPVSGSKKPAEDGQLVILAAGEKALYEEIIPAFEVLGKKSFFLGQVGNGANMKLIVNMIMGSMMNALSEGLSLAGKSGLEQKTLLDVLDLGAIANPMFKLKGPAMIQNNHPPAFPLKHQQKDMRLALALGDENAVSMPVAAAANEAFKKARSLGLGDLDFSAVYEVLKYGDAS
modifications: tulip pistil
specific activity [1]: 0.14 μmol/min^−1/mg^−1 | Km [2]: 3 mM | kcat [2]: 20 s⁻¹ | conversion of α-methylenesuccinatesemialdehyde [3]: could convert
